Experimental data as given in PMC11417369, “DNA sequence and chromatin differentiate sequence-specific transcription factor binding in the human malaria parasite Plasmodium falciparum”.

T1: PF3D7_0420300 D1 (Plasmodium falciparum, UniProt Q8I1N6 1956-2015)
T1 sequence: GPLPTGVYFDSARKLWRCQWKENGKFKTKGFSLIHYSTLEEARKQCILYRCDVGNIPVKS

B1: CACACA_site5088 (dsDNA)
DNA 1: CCAACATAGAGGGGCACACACATATATACCTAAAAA
DNA 2: TTTTTAGGTATATATGTGTGTGCCCCTCTATGTTGG
B2: CACACA_site2584 (dsDNA)
DNA 1: ATTGCTTTTCTTTTTGCACACTTATGCATATATATA
DNA 2: TATATATATGCATAAGTGTGCAAAAAGAAAAGCAAT
B3: CACACA_site632 (dsDNA)
DNA 1: ATATAATATTAGTGCACACACAAAAATGTACTAAAC
DNA 2: GTTTAGTACATTTTTGTGTGTGCACTAATATTATAT
B4: CACACA_site8720 (dsDNA)
DNA 1: TATGTATTAAATTTTACACACATGATTCTCTATATG
DNA 2: CATATAGAGAATCATGTGTGTAAAATTTAATACATA
B5: CACACA_site76 (dsDNA)
DNA 1: GGCAGCAATTTAGTTACACACATATATAGGTATACA
DNA 2: TGTATACCTATATATGTGTGTAACTAAATTGCTGCC
B6: CACACA_site4699 (dsDNA)
DNA 1: AAACAGAAGACATATACACACATACAAAAAAGTGCA
DNA 2: TGCACTTTTTTGTATGTGTGTATATGTCTTCTGTTT
B7: CACACA_site6737 (dsDNA)
DNA 1: TAAAAAATAAAATACACACACATATTTATATTTATA
DNA 2: TATAAATATAAATATGTGTGTGTATTTTATTTTTTA
B8: CACACA_site4569 (dsDNA)
DNA 1: TTGCCCATTTCATTAACACACAAATGTTTATATTCT
DNA 2: AGAATATAAACATTTGTGTGTTAATGAAATGGGCAA
B9: CACACA_site2783 (dsDNA)
DNA 1: TATGAAAGAAATAGTACACACATAAACATTTGTAAA
DNA 2: TTTACAAATGTTTATGTGTGTACTATTTCTTTCATA
B10: CACACA_site6075 (dsDNA)
DNA 1: AATAAATAAGCACATACACACATACATACATACATA
DNA 2: TATGTATGTATGTATGTGTGTATGTGCTTATTTATT
B11: CACACA_site4181 (dsDNA)
DNA 1: GGATATATTTTATGTACACACACATATAAGGGATTA
DNA 2: TAATCCCTTATATGTGTGTGTACATAAAATATATCC
B12: CACACA_site8811 (dsDNA)
DNA 1: TTAAAAATATATATAACACACACATAATATATATAT
DNA 2: ATATATATATTATGTGTGTGTTATATATATTTTTAA
B13: CACACA_site1373 (dsDNA)
DNA 1: TACAAAATATATATGACACACATAAAAAAAAGTATA
DNA 2: TATACTTTTTTTTATGTGTGTCATATATATTTTGTA
B14: CACACA_site8696 (dsDNA)
DNA 1: TGGGAAAAAATATATGCACACCCCCCAAAAAAAAAA
DNA 2: TTTTTTTTTTGGGGGGTGTGCATATATTTTTTCCCA
B15: CACACA_site5336 (dsDNA)
DNA 1: TATAATAATAAAAACACACACGTTGATTGTATTAGC
DNA 2: GCTAATACAATCAACGTGTGTGTTTTTATTATTATA
B16: CACACA_site4200 (dsDNA)
DNA 1: TGTCCCCCTTTCTATGCACACTTTAAATTATTCAAA
DNA 2: TTTGAATAATTTAAAGTGTGCATAGAAAGGGGGACA
B17: CACACA_site6811 (dsDNA)
DNA 1: CATATAAAGATATGAACACACAAAAAGAATATTTCC
DNA 2: GGAAATATTCTTTTTGTGTGTTCATATCTTTATATG
B18: CACACA_site8226 (dsDNA)
DNA 1: TGATAACCTAATAATACACACACATGAATATATATA
DNA 2: TATATATATTCATGTGTGTGTATTATTAGGTTATCA

Target: T1, PF3D7_0420300 D1
Experiment: gcPBM; about 25 ug protein; PBS, 1% milk, 0.2 mg/ml BSA, salmon testes DNA, 0.03% Triton X-100
Conditions: tags: N-terminal GST (pGEX-4T-1), kept; label: surface-attached array probe

In order of rising binding signal:
1. B1  9.64 ln median PBM intensity, better of two orientations
2. B4  9.65 ln median PBM intensity, better of two orientations
3. B15  9.66 ln median PBM intensity, better of two orientations
4. B5  9.67 ln median PBM intensity, better of two orientations
5. B16  9.68 ln median PBM intensity, better of two orientations
6. B13  9.69 ln median PBM intensity, better of two orientations
7. B8  9.7 ln median PBM intensity, better of two orientations
8. B10  9.71 ln median PBM intensity, better of two orientations
9. B2  9.72 ln median PBM intensity, better of two orientations
10. B17  9.72 ln median PBM intensity, better of two orientations
11. B9  9.73 ln median PBM intensity, better of two orientations
12. B11  9.74 ln median PBM intensity, better of two orientations
13. B6  9.75 ln median PBM intensity, better of two orientations
14. B18  9.76 ln median PBM intensity, better of two orientations
15. B7  9.78 ln median PBM intensity, better of two orientations
16. B3  9.79 ln median PBM intensity, better of two orientations
17. B12  9.8 ln median PBM intensity, better of two orientations
18. B14  10.7 ln median PBM intensity, better of two orientations
